Patent US20220249640A1 (Dana-Farber, published 2022)
Blank lines part the entries; values can stand above or below the binder they belong to.

Legend:
[1] = target: human PD-1 on cells (human, UniProt Q15116 25-288); test: cell-based or functional assay
[2] = target: T1, mouse PD-1 on transiently transfected Expi293 cells (mouse, UniProt Q02242 25-288); test: flow cytometry on transiently transfected Expi293 cells, anti human Fc-APC
T1 construct: whole, on cells; also called mPD-1
T1 sequence (looked up): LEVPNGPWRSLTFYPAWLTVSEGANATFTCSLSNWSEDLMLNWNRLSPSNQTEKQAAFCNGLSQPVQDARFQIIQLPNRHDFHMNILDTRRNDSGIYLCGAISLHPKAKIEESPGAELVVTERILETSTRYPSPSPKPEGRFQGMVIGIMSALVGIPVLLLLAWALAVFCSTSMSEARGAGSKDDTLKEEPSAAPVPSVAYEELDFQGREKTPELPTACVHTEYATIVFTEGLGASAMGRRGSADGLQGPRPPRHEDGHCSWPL
Description: 3E5 transiently transfected Expi293 cells were suspended in 100 ul MACS buffer and added to each well. 50 ul of each antibody dilution were then mixed with the cells and the plate was incubated at 4° C. for 30 min. Following incubation, the plate was washed 2× with MACS buffer and then incubated with lul/well anti human Fc-APC (Biolegend #409306). The plate was incubated for 25 min at 4° C. and then washed 3× before running the samples.

[3] = target: T2, PD-1 (soluble, biotinylated, on sensors or coated on plates) (human, UniProt Q15116 25-167, limits assumed, biotinylated (avi tag, Avidity's biotinylation kit) in the Octet assays); test: method not stated at the list; Octet curves of the mutants in FIG. 23
T2 construct: also called biotinylated PD-1; soluble PD1
T2 sequence (Q15116 25-167 limits assumed): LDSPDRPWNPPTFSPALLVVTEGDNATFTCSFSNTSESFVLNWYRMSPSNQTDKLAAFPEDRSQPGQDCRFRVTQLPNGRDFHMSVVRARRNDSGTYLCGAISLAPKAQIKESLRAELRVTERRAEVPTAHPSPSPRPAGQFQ

[4] = target: T2, PD-1 (soluble, biotinylated, on sensors …); test: Octet (BLI)

Sequence of human PD-1 on cells (Q15116 25-288): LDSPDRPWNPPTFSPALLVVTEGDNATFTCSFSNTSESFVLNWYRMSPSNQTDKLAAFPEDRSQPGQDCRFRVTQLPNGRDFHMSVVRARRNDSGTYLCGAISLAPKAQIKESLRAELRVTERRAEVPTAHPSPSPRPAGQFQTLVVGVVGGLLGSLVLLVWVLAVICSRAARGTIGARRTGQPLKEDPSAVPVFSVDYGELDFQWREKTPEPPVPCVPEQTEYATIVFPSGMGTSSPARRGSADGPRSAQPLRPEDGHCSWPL

fold induction (RLU stimulated/RLU unstimulated), Promega PD1-PDL1 bioassay [1]: ~0.5 fold of the signal of pembro and nivo
B1: P4-B3 IgG1 wild type monomer (antibody, V domains shown)
VH: QVQLVQSGGGLVQPGRSLRLSCAASGFTFDDYAMHWVRQAPGKGLEWVSGISWNSGSIGYADSVKGRFTVSRDNAKNSLYLQMNSLRAEDTAVYYCASDYGDKYYYYGMDVWGKGTTVTVSS
VL: QPGLTQPPSASGTPGQRVTISCSGSSSNIGSNTVNWYQQFPGKAPKLLIFNDNQRPSGVPDRFSASKSGTSASLAISGLQSEDEADYYCAAWDGGLNGRGVFGGGTKLTVLG

binding result [2]: binds
B2: P4-B3 (format not stated) (antibody, V domains shown)
VH: B1 VH
VL: QPGLTQPPSASGTPGQRVTISCSGSSSNIGSNTVNWYQQFPGKAPKLLIFNDNQRPSGVPDRFSASKSGTSASLAISGLQSEDEADYYCAAWDGGLNGRGVFGGGTKLTVL
notes: It was detected with anti human Fc-APC

Kd [3]: ~1 nM
EC50, Promega PD1-PDL1 bioassay (scFv-Fc format) [1]: 1.75 fold of the EC50 of Nivo
B3: P4-B3 minibody (scFv-Fc) (Fc fusion)
scFv: QVQLVQSGGGLVQPGRSLRLSCAASGFTFDDYAMHWVRQAPGKGLEWVSGISWNSGSIGYADSVKGRFTVSRDNAKNSLYLQMNSLRAEDTAVYYCASDYGDKYYYYGMDVWGKGTTVTVSSGGGGSGGGGSGGGGSQPGLTQPPSASGTPGQRVTISCSGSSSNIGSNTVNWYQQFPGKAPKLLIFNDNQRPSGVPDRFSASKSGTSASLAISGLQSEDEADYYCAAWDGGLNGRGVFGGGTKLTVL
notes: scFv-Fc (minibody) format; also called P4-B3 WT; P4-B3 wild type; not shown: Fc (hinge-CH2-CH3) of the minibody vector and its junction to the scFv

koff [4]: 6.45e-05 s⁻¹
kon [4]: 68500 M⁻¹ s⁻¹
B4: P4-B3 scFv (scFv)
scFv: B3 scFv
notes: This is a single chain Fv; VH and VL are joined by a G4S linker of which only the DNA is printed
